Residues, ends and D or L forms follow the SMILES beside them.
How the values were obtained:
Type in all cases: cell-based
NPSR receptor [1] = biological target: T1, NPSR receptor (Homo sapiens, UniProt Q6W5P4); experiment: CRE-luciferase reporter assay in HEK293T cells over-expressing NPSR (cAMP signaling); conditions: for EC50 / Agonist effect (CRE) EC50: HEK293T co-transfected with CRE-luciferase reporter (50 ng), pSV-β-Gal (5 ng), NPSR plasmid (50 ng), after 36 h, 18 h with peptide in serum-free media, normalized to β-galactosidase, at least three experiments in triplicates, apparent EC50, Graphpad Prism 5.0; for EC50: read-out: Agonist effect (CRE) EC50; for bioactivity in the CRE-luciferase assay (in words): 6th position substitution mutants, HEK293T with NPSR, Fig. 3A
T1 construct: Full length cDNA for the NPSR receptor was purchased from OriGene Technologies; host or cells: HEK293T
T1 sequence (Q6W5P4 1-371): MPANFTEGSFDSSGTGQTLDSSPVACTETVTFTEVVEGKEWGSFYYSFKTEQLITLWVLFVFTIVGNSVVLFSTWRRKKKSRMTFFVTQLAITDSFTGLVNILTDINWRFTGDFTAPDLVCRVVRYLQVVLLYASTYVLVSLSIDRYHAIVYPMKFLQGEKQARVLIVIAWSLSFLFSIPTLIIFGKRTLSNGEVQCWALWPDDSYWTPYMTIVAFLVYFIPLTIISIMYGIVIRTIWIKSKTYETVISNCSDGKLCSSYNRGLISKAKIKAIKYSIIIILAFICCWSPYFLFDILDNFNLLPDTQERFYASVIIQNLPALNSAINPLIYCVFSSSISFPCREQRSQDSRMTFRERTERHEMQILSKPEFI
Procedure: (§1) HEK293T cells seeded in 24-well plates were co-transfected with different luciferase reporters (50 ng), the pSV-β-Gal plasmid (5 ng), and the NPSR receptor plasmid (50 ng). After 36 h, cells were cultured in serum-free media for another 18 h with increasing doses of the various NPS peptides. Luciferase activities were determined using the luciferase assay kit (Promega) and normalized using β-galactosidase activities. All experiments were performed at least three times in triplicates. Data (EC50) were analyzed using Graphpad Prism 5.0.
(§2) Figure 2 Sequence comparison and lower NPSR receptor signaling ability of the L^6-NPS variant. (A) Alignment of NPS among diverse vertebrate species. Sequences were aligned by the ClustalW program. Stars indicate identical amino acids and double dots (:) indicate conserved amino acids. The predicted convertase cleavage sites (KR) were underlined and the 6th amino acid “V” or “L” in the mature peptide region are shown in bold. (B) Comparison of NPS and L^6-NPS signaling based on the CRE-luciferase assay. (C) Comparison of NPS and L^6-NPS signaling based on the NFAT luciferase assay. HEK293T cells seeded in 24-well plates were co-transfected with different luciferase reporters (50 ng), the pSV-β-Gal plasmid (5 ng), and the NPSR receptor plasmid (50 ng). After 36 h, cells were cultured in serum-free media for another 18 h with increasing doses of the various NPS peptides. EC50 values were analyzed using Graphpad Prism 5.0.
(§3) To compare the bioactivity of wide type NPS (NPS) and the SNP variant (L^6-NPS), we monitored their receptor-activation activities in vitro using HEK293T cells over-expressing NPSR. Because NPS activates NPSR by increasing cAMP production and intracellular Ca^2+ signaling, [10], we used CRE- and NFAT- response elements to measure cAMP and intracellular Ca2+ signaling respectively, [36]. As expected, treatment with wide-type NPS led to dose-dependent stimulation of both CRE- and NFAT- luciferase activities (Fig. 2B and C). We also performed the relaxin-LGR7 ligand-receptor pair as a positive control for the CRE-luciferase assay. Also, gastrin-CCKB ligand-receptor pair was used as a positive control for the SRE-luciferase assay. Cells transfected with the empty vector were also treated with NPS to serve as a negative control (Fig. S4).

NPSR receptor [2] = biological target: T1, NPSR receptor; experiment: NFAT-luciferase reporter assay in HEK293T cells over-expressing NPSR (intracellular Ca2+ signaling); conditions: HEK293T co-transfected with NFAT-luciferase reporter (50 ng), pSV-β-Gal (5 ng), NPSR plasmid (50 ng), after 36 h, 18 h with peptide in serum-free media, normalized to β-galactosidase, at least three experiments in triplicates, Graphpad Prism 5.0; for EC50: read-out: Agonist effect (NFAT) EC50
Procedure: as §1, §2, §3

LGR7 = biological target: T2, LGR7 (Homo sapiens, UniProt Q9HBX9); experiment: CRE-luciferase assay, relaxin-LGR7 ligand-receptor pair (positive control); conditions: Fig. S4
T2 construct: expressed in transfected cells; host or cells: HEK293T (inferred from the general luciferase protocol)
T2 sequence (Q9HBX9 1-757): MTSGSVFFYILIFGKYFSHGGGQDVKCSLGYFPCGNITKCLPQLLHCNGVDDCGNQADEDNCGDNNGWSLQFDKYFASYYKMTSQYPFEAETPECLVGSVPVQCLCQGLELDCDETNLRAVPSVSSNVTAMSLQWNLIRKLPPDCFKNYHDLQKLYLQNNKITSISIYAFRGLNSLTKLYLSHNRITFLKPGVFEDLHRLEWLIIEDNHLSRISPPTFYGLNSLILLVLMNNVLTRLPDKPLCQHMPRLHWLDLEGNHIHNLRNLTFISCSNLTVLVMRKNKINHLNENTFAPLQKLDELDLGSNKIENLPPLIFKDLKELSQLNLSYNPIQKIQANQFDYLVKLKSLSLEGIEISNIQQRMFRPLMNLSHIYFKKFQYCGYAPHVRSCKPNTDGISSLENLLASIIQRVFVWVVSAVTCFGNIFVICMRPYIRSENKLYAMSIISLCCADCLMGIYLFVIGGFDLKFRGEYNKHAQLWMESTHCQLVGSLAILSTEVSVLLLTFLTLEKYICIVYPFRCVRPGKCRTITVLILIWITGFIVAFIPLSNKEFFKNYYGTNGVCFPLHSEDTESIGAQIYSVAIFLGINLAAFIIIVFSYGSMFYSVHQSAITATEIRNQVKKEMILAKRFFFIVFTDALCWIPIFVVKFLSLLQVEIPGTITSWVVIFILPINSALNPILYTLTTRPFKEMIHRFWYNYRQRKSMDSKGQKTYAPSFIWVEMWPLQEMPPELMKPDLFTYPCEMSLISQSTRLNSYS
Description: as §3
Supplementary file pone.0083009.s004.pdf: Figure S4 Positive control and negative control for the CRE- and SRE- luciferase assay. […] (PDF) Click here for additional data file.

| Compound | EC50 (NPSR receptor [1]) [nM] | EC50 (NPSR receptor [2]) [nM] | bioactivity in the CRE-luciferase assay (in words) (NPSR receptor [1]) | Agonist effect (CRE) EC50 (NPSR receptor [1]) | Agonist effect (NFAT) EC50 (NPSR receptor [2]) | stimulation of CRE-luciferase via LGR7 (LGR7) |
| --- | --- | --- | --- | --- | --- | --- |
| CSCC[C@H](NC(=O)CNC(=O)[C@@H](NC(=O)CNC(=O)[C@@H](NC(=O)CNC(=O)[C@H](CC(N)=O)NC(=O)[C@H](CCCNC(=N)N)NC(=O)[C@H](Cc1ccccc1)NC(=O)[C@@H](N)CO)C(C)C)[C@@H](C)O)C(=O)N[C@@H](CCCCN)C(=O)N[C@@H](CCCCN)C(=O)N[C@H](C(=O)N[C@@H](CO)C(=O)N[C@@H](Cc1ccccc1)C(=O)N[C@@H](CCC(N)=O)C(=O)N[C@@H](CCCNC(=N)N)C(=O)N[C@@H](C)C(=O)N[C@@H](CCCCN)C(=O)N[C@@H](CO)C(=O)O)[C@@H](C)O [NPS, Neuropeptide S, reference compound] (H-SFRNGVGTGMKKTSFQRAKS-OH) | 36.9 | 44.6 | – | – | – | – |
| D^6-NPS: NPS mutant with aspartic acid at the 6th position (SFRNGDGTGMKKTSFQRAKS; Neuropeptide S; UniProt P0C0P6 70-89, looked up, variant V6D) | – | – | complete loss of bioactivity | inactive | inactive | – |
| F^6-NPS: NPS mutant with phenylalanine at the 6th position (SFRNGFGTGMKKTSFQRAKS; Neuropeptide S; UniProt P0C0P6 70-89, looked up, variant V6F) | – | – | complete loss of bioactivity | inactive | inactive | – |
| CSCC[C@H](NC(=O)CNC(=O)[C@@H](NC(=O)CNC(=O)[C@H](CC(C)C)NC(=O)CNC(=O)[C@H](CC(N)=O)NC(=O)[C@H](CCCNC(=N)N)NC(=O)[C@H](Cc1ccccc1)NC(=O)[C@@H](N)CO)[C@@H](C)O)C(=O)N[C@@H](CCCCN)C(=O)N[C@@H](CCCCN)C(=O)N[C@H](C(=O)N[C@@H](CO)C(=O)N[C@@H](Cc1ccccc1)C(=O)N[C@@H](CCC(N)=O)C(=O)N[C@@H](CCCNC(=N)N)C(=O)N[C@@H](C)C(=O)N[C@@H](CCCCN)C(=O)N[C@@H](CO)C(=O)O)[C@@H](C)O [L^6-NPS] (H-SFRNGLGTGMKKTSFQRAKS-OH) | 586 | 975 | – | – | – | – |
| N^6-NPS: NPS mutant with asparagine at the 6th position (SFRNGNGTGMKKTSFQRAKS; Neuropeptide S; UniProt P0C0P6 70-89, looked up, variant V6N) | – | – | complete loss of bioactivity | inactive | inactive | – |
| relaxin | – | – | – | – | – | normal stimulation |
| CC[C@H](C)[C@H](NC(=O)CNC(=O)[C@H](CC(N)=O)NC(=O)[C@H](CCCNC(=N)N)NC(=O)[C@H](Cc1ccccc1)NC(=O)[C@@H](N)CO)C(=O)NCC(=O)N[C@H](C(=O)NCC(=O)N[C@@H](CCSC)C(=O)N[C@@H](CCCCN)C(=O)N[C@@H](CCCCN)C(=O)N[C@H](C(=O)N[C@@H](CO)C(=O)N[C@@H](Cc1ccccc1)C(=O)N[C@@H](CCC(N)=O)C(=O)N[C@@H](CCCNC(=N)N)C(=O)N[C@@H](C)C(=O)N[C@@H](CCCCN)C(=O)N[C@@H](CO)C(=O)O)[C@@H](C)O)[C@@H](C)O [I^6-NPS] (H-SFRNGIGTGMKKTSFQRAKS-OH) | 174 | 280 | – | – | – | – |
| CSCC[C@H](NC(=O)CNC(=O)[C@@H](NC(=O)CNC(=O)[C@H](C)NC(=O)CNC(=O)[C@H](CC(N)=O)NC(=O)[C@H](CCCNC(=N)N)NC(=O)[C@H](Cc1ccccc1)NC(=O)[C@@H](N)CO)[C@@H](C)O)C(=O)N[C@@H](CCCCN)C(=O)N[C@@H](CCCCN)C(=O)N[C@H](C(=O)N[C@@H](CO)C(=O)N[C@@H](Cc1ccccc1)C(=O)N[C@@H](CCC(N)=O)C(=O)N[C@@H](CCCNC(=N)N)C(=O)N[C@@H](C)C(=O)N[C@@H](CCCCN)C(=O)N[C@@H](CO)C(=O)O)[C@@H](C)O [A^6-NPS] (H-SFRNGAGTGMKKTSFQRAKS-OH) | 534 | 958 | – | – | – | – |
| K^6-NPS: NPS mutant with lysine at the 6th position (SFRNGKGTGMKKTSFQRAKS; Neuropeptide S; UniProt P0C0P6 70-89, looked up, variant V6K) | – | – | complete loss of bioactivity | inactive | inactive | – |

From paper PMC3873911 (PLoS ONE, 2013)
